From paper PMC8671946 come the findings set out here.

In this test the target is HER2/PD-L1 BsAb (humanized bispecific IgG1 subclass antibody targeting both HER2 and PD-L1). The test is described as follows: BLI; Octet RED96; antibody (10 ug/ml) immobilised on Protein A biosensors; 6xHis-tagged antigens two-fold serially titrated from 100 nM; PBS with 0.02% Tween 20 and 0.1% BSA, room temperature.

A word on the Kd: it is the free concentration of one partner at which half of the binding sites on the other are occupied at equilibrium, for simple one-to-one binding. A high value points to weaker binding. Substance “human epidermal growth factor receptor 2 (HER2), recombinant, 6xHis-tagged (from UniProt P04626 23-652)” displayed an equilibrium dissociation constant (Kd) of 6.36 nM.
